How the values were obtained:
[1] = Injection of prodrug after injection of fusion protein, side effects; type: in vivo; details: prodrug injected 3 days after injection of the fusion protein; data not shown
Text: This rapid internalization mechanism, which is mainly mediated by galactose and mannose, is closely involved in the advantageous phannacokinetics of the fusion protein according to the invention. These advantageous pharmacokinetics of the fusion protein to which galactose and, in particular, mannose are attached makes it possible for a hydrophilic prodrug which undergoes extracellular distribution to be administered i.v. at a relatively early time without eliciting non-specific prodrug activation. In this case an elimination step as described by Sharma et al. (Brit. J. Cancer, 61, 659, 1990) is unnecessary.

[2] = test system: CEA; assay: Specificity enzyme activity test, plates coated with CEA; type: biochemical
Text: (§1) The ability of the sFv-huβ-Gluc fusion protein to bind specifically to the CEA epitope defined by 431/26 and simultaneously to exert the enzymatic activity of human β-glucuronidase was shown in a specificity enzyme activity test (EP-A2-0 501 215). The test determines the liberation of 4-methylumbelliferone from 4-methylumbelliferyl β-glucuronide by the β-glucuronidase portion of the fusion protein after the fusion protein has been bound via the sFv portion to an antigen. The measured fluorescence values are reported as relative fluorescence units (FU).

[3] = test system: PEM (polymorphic epithelial mucin); assay: Specificity enzyme activity test, control plates coated with PEM; type: biochemical
Text: as §1

[4] = Analysis of the monosaccharide components in the carbohydrate content (HPAE-PAD after hydrolysis); type: physicochemical
Protocol: Neuraminic acid was determined by the method of Hermentin and Seidat (1991) GBF Monographs Volume 15, pp. 185-188 (after hydrolysis for 30 min in the presence of 0.1 N sulfuric acid at 80° C. and subsequent neutralization with 0.4 N sodium hydroxide solution) by high-pH anion exchange chomatography with pulsed amerometric detection (HPAE-PAD).
The monosaccaride components were determined (after hydrolysis for 4 h in the presence of 2 N trifluoracetic acid at 100° C. and evaporation to dryness in a SpeedVac) likewise by HPAE-PAD in a […] of the method described by Hardy et al. (1988) Analytical Biochemistry 170, pp. 54-62.

[5] = fusion protein expressed by BHK cells
[6] = fusion protein from BHK cells, after hydrolysis
[7] = fusion protein from Saccharomyces cerevisiae

B1: sFv-huβ-Gluc: humanized sFv fragment against CEA (from MAb BW 431/26) linked via hinge to human β-glucuronidase; SEQ ID NO:2 (protein)
chain: MGWSCIILFLVATATGVHSQVQLQESGPGLVRPSQTLSLTCTVSGFTISSGYSWHWVRQPPGRGLEWIGYIQYSGITNYNPSLKSRVTMLVDTSKNQFSLRLSSVTAADTAVYYCAREDYDYHWYFDVWGQGTTVTVSSGGGGSGGGGSGGGGSDIQLTQSPSSLSASVGDRVTITCSTSSSVSYMHWYQQKPGKAPKLLIYSTSNLASGVPSRFSGSGSGTDFTFTISSLQPEDIATYYCHQWSSYPTFGQGTKLEIKELKTPLGDTTHTCPRCPAAAAVQGGMLYPQESPSRECKELDGLWSFRADFSDNRRRGFEEQWYRRPLWESGPTVDMPVPSSFNDISQDWRLRHFVGWVWYEREVILPERWTQDLRTRVVLRIGSAHSYAIVWVNGVDTLEHEGGYLPFEADISNLVQVGPLPSRLRITIAINNTLTPTTLPPGTIQYLTDTSKYPKGYFVQNTYFDFFNYAGLQRSVLLYTTPTTYIDDITVTTSVEQDSGLVNYQISVKGSNLFKLEVRLLDAENKVVANGTGTQGQLKVPGVSLWWPYLMHERPAYLYSLEVQLTAQTSLGPVSDFYTLPVGIRTVAVTKSQFLINGKPFYFHGVNKHEDADIRGKGFDWPLLVKDFNLLRWLGANAFRTSHYPYAEEVMQMCDRYGIVVIDECPGVGLALPQFFNNVSLHHHMQVMEEVVRRDKNHPAVVMWSVANEPASHLESAGYYLKMVIAHTKSLDPSRPVTFVSNSNYAADKGAPYVDVICLNSYYSWYHDYGHLELIQLQLATQFENWYKKYQKPIIQSEYGAETIAGFHQDPPLMFTEEYQKSLLEQYHLGLDQKRRKYVVGELIWNFADFMTEQSPTRVLGNKKGIFTRQRQPKSAAFLLRERYWKIANETRYPHSVAKSQCLENSPFT
[1]
  side effects after injection of a suitable prodrug: without producing significant side effects
[2]; [5]
  antigen specificity: specific for CEA
  β-glucuronidase activity: full β-glucuronidase activity
[2]; plates coated with CEA
  liberation of methylumbelliferone from 4-methylumbelliferyl β-glucuronide: significant liberation of methyl-umbelliferone
[3]
  liberation of methylumbelliferone from 4-methylumbelliferyl β-glucuronide: does not liberate any methylumbelliferone
[4]; [6]
  Fucose, molar ratio: 4 mol of carbohydrate/mol of sFv-huβ-Gluc
  Galactosamine, molar ratio: 2 mol of carbohydrate/mol of sFv-huβ-Gluc
  Galactose, molar ratio: 8 mol of carbohydrate/mol of sFv-huβ-Gluc
  Glucose, molar ratio: 1 mol of carbohydrate/mol of sFv-huβ-Gluc
  Mannose, molar ratio: 43 mol of carbohydrate/mol of sFv-huβ-Gluc
  N-Acetyl glucosamine, molar ratio: 30 mol of carbohydrate/mol of sFv-huβ-Gluc
  N-Acetyl-neuraminic acid, molar ratio: 4 mol of carbohydrate/mol of sFv-huβ-Gluc

B2: sFv-huβGluc: sFv 431/26 human β-glucuronidase fusion protein expressed in yeast (Example 9), highly mannosylated (protein)
chain: QVQLQESGPGLVRPSQTLSLTCTVSGFTISSGYSWHWVRQPPGRGLEWIGYIQYSGITNYNPSLKSRVTMLVDTSKNQFSLRLSSVTAADTAVYYCAREDYDYHWYFDVWGQGTTVTVSSGGGGSGGGGSGGGGSDIQLTQSPSSLSASVGDRVTITCSTSSSVSYMHWYQQKPGKAPKLLIYSTSNLASGVPSRFSGSGSGTDFTFTISSLQPEDIATYYCHQWSSYPTFGQGTKLEIKELKTPLGDTTHTCPRCPAAAAVQGGMLYPQESPSRECKELDGLWSFRADFSDNRRRGFEEQWYRRPLWESGPTVDMPVPSSFNDISQDWRLRHFVGWVWYEREVILPERWTQDLRTRVVLRIGSAHSYAIVWVNGVDTLEHEGGYLPFEADISNLVQVGPLPSRLRITIAINNTLTPTTLPPGTIQYLTDTSKYPKGYFVQNTYFDFFNYAGLQRSVLLYTTPTTYIDDITVTTSVEQDSGLVNYQISVKGSNLFKLEVRLLDAENKVVANGTGTQGQLKVPGVSLWWPYLMHERPAYLYSLEVQLTAQTSLGPVSDFYTLPVGIRTVAVTKSQFLINGKPFYFHGVNKHEDADIRGKGFDWPLLVKDFNLLRWLGANAFRTSHYPYAEEVMQMCDRYGIVVIDECPGVGLALPQFFNNVSLHHHMQVMEEVVRRDKNHPAVVMWSVANEPASHLESAGYYLKMVIAHTKSLDPSRPVTFVSNSNYAADKGAPYVDVICLNSYYSWYHDYGHLELIQLQLATQFENWYKKYQKPIIQSEYGAETIAGFHQDPPLMFTEEYQKSLLEQYHLGLDQKRRKYVVGELIWNFADFMTEQSPTRVLGNKKGIFTRQRQPKSAAFLLRERYWKIANETRYPHSVAKSQCLENSPFT
[4]; [7]
  Glucosamine: 6 mol/mol
  Glucose: 12 mol/mol
  Mannose: 150 mol/mol

From patent US7273727B2, “Fusion proteins for prodrug activation” (Behrinwerke Aktiengesellschaft, priority 1992, dated 2007)
